The experiment deals with CD19 on Daudi cells (CD19 positive target tumor cells) (UniProt P15391). The experiment can be described thus: cell-based or functional assay.
Sequence of UniProt P15391 (P15391 20-556 limits assumed): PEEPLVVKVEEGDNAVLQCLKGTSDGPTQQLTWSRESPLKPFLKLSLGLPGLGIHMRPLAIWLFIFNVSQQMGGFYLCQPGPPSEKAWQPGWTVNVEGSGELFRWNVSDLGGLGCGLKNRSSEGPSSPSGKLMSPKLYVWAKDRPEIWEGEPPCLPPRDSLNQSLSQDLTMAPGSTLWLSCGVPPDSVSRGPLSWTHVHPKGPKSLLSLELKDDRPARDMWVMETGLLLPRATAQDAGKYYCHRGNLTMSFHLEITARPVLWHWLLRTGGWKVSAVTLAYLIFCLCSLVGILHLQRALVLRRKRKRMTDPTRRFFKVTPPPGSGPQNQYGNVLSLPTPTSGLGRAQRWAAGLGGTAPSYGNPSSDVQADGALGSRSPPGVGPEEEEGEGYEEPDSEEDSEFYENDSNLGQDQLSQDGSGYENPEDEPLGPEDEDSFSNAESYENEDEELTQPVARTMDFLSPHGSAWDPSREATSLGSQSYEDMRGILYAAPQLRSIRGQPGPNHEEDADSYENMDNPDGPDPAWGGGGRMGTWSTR

Substance “CD19(4G7) scFv/4-1BB/CD3ζ CAR (receptor)” yielded a % CD107a+ of CD4+ T cells, 6 hr co-culture with Daudi cells of 30.4%; a % CD107a+ of CD8+ T cells, 6 hr co-culture with Daudi cells of 44.6%; a % CD107a+ of NK cells (CD5-CD56+), co-culture with Daudi cells of 32.5%; a % CD107a+ of NKT cells, 6 hr co-culture with Daudi cells of 48.6%. This substance returned a % CD107a+ of TCRγδ T cells, co-culture with Daudi cells of 23.2%; a % CD107a+ of residual TCRαβ+ cells, 6 hr co-culture with Daudi cells of 64.8%; a % IFNγ+ of CD8+ T cells, co-culture with Daudi cells of 16.7%; a % IFNγ+ of NKT cells, co-culture with Daudi cells of 24.8%. Besides, the % IFNγ+ of TCRγδ T cells, co-culture with Daudi cells came to 7.46%; the % IFNγ+ of residual TCRαβ+ cells, co-culture with Daudi cells was 50.9%; the % IL2+ of CD8+ T cells, co-culture with Daudi cells stood at 0.69%; the % IL2+ of NKT cells, co-culture with Daudi cells amounted to 1.07%. For the same substance, the % IL2+ of TCRγδ T cells, co-culture with Daudi cells was 0.23%; the % IL2+ of residual TCRαβ+ cells, co-culture with Daudi cells stood at 13.9%; the % TNFα+ of CD8+ T cells, co-culture with Daudi cells is 21.5%; the % TNFα+ of NKT cells, co-culture with Daudi cells turned out to be 28.3%. The substance also registered a % TNFα+ of TCRγδ T cells, co-culture with Daudi cells of 12.9% and a % TNFα+ of residual TCRαβ+ cells, co-culture with Daudi cells of 50%.

The values above are taken from patent publication US20220184124A1.
